From patent EP2385124A2 (Arbor Vita Corporation, dated 2011)
No end group written: not given here. *: point of attachment. Biotin = O=C1N[C@H]2[C@H](CS[C@H]2CCCCC(=O)*)N1

Tests used:
[1] = molecular target: T1, GST-PSD95 PDZ domains 1-3 fusion protein (human, UniProt P78352 58-395); test: A/G plate assay (TABLE 2)
T1 construct: domain: PDZ domains 1-3 (of 3); AA numbers count on the GenBank entry; not shown: glutathione-S transferase (GST) as encoded by vector pGEX-3X (Pharmacia)

[2] = molecular target: T1, GST-PSD95 PDZ domains 1-3 fusion protein; test: G assay, biotinylated peptide titrated on plate-bound GST-PDZ, saturation fit (apparent affinity)
[3] = molecular target: T2, GST-PTN-4 PDZ domain fusion protein (UniProt P29074 516-604); test: A/G plate assay (TABLE 2)
T2 construct: domain: PDZ domain 1 (of 1); AA numbers count on the GenBank entry; also called protein-tyrosine phosphatase meg1; not shown: glutathione-S transferase (GST) as encoded by vector pGEX-3X (Pharmacia)
T2 sequence: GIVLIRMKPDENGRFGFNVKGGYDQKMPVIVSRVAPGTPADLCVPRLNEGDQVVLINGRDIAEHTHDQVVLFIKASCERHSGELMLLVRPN

[4] = molecular target: T3, GST-AF6 PDZ domain fusion protein (UniProt P55196 1001-1093); test: A/G plate assay (TABLE 2)
T3 construct: domain: PDZ domain 1 (of 1); AA numbers count on the GenBank entry; also called af-6 protein; not shown: glutathione-S transferase (GST) as encoded by vector pGEX-3X (Pharmacia)
T3 sequence: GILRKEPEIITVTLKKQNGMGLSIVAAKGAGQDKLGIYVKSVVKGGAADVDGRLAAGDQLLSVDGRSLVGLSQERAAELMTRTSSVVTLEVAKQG

[5] = molecular target: T4, GST-MPP1 PDZ domain fusion protein (UniProt Q00013 67-152); test: A/G plate assay (TABLE 2)
T4 construct: domain: PDZ domain 1 (of 1); AA numbers count on the GenBank entry; also called 55 Kd erythrocyte membrane protein; not shown: glutathione-S transferase (GST) as encoded by vector pGEX-3X (Pharmacia)
T4 sequence: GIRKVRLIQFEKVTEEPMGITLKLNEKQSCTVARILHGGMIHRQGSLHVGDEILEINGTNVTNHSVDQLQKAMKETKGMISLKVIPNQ

[6] = molecular target: T5, GST-prIL16 PDZ domains 1-2 fusion protein (UniProt Q14005 1111-1324); test: A/G plate assay (TABLE 2)
T5 construct: domain: PDZ domain 1-2 (of 2); AA numbers count on the GenBank entry; also called putative interleukin 16 precursor; not shown: glutathione-S transferase (GST) as encoded by vector pGEX-3X (Pharmacia)
T5 sequence: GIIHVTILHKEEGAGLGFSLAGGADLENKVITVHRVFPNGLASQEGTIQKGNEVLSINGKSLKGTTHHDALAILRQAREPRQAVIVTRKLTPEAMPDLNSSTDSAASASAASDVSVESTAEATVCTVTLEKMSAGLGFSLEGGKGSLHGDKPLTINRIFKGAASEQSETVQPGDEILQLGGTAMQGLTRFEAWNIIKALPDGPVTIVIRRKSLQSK

[7] = molecular target: T6, GST-KIAA0561 PDZ domain fusion protein (UniProt O60307 948-1038); test: A/G plate assay (TABLE 2)
T6 construct: domain: PDZ domain 1 (of 1); AA numbers count on the GenBank entry; also called K561; not shown: glutathione-S transferase (GST) as encoded by vector pGEX-3X (Pharmacia)
T6 sequence: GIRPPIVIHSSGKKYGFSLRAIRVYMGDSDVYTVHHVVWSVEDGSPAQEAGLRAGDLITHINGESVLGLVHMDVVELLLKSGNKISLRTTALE

[8] = molecular target: T7, GST-TIAM1 PDZ domain fusion protein (UniProt Q13009 844-931); test: A/G plate assay (TABLE 2)
T7 construct: domain: PDZ 1 (of 1); AA numbers count on the GenBank entry; also called T-lymphoma invasion and metastasis inducing protein 1; not shown: glutathione-S transferase (GST) as encoded by vector pGEX-3X (Pharmacia)

[9] = molecular target: T8, GST-KIAA0303 PDZ domain fusion protein (UniProt O15021 1139-1229); test: A/G plate assay (TABLE 2)
T8 construct: domain: PDZ domain 1 (of 1); AA numbers count on the GenBank entry; also called K303; not shown: glutathione-S transferase (GST) as encoded by vector pGEX-3X (Pharmacia)
T8 sequence: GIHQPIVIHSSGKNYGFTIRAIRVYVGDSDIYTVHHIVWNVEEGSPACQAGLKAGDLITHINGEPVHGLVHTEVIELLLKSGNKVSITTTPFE

T1 sequence (P78352 other isoform, or with tags, fused parts or gaps): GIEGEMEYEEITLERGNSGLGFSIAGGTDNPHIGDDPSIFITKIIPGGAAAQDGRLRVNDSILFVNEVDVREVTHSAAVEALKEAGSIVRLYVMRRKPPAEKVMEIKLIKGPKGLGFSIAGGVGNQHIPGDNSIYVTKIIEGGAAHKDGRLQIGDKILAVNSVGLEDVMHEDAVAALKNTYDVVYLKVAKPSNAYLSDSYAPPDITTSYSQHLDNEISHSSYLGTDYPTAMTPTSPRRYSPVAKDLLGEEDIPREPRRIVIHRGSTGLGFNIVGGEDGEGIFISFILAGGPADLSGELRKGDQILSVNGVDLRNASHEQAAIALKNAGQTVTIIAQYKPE
T7 sequence (Q13009 other isoform, or with tags, fused parts or gaps): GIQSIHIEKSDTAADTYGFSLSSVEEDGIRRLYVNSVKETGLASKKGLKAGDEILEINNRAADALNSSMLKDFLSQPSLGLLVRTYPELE

B1: CD46 (Form 1) C-terminal PL peptide AA10L (peptide)
peptide: Biotin-KKGTYLTDETHREVKFTSL
binding result [1]: binds

B2: CD3n C-terminal PL peptide AA4L (peptide)
peptide: Biotin-SVFSIPTLWSPWPPSSSSQL
notes: also called CD3-eta; CD3-η
binding result [1]: binds

B3: CDW128B (IL8RB) C-terminal PL peptide AA29.2L (peptide)
peptide: Biotin-KDSRPSFVGSSSGHTSTTL
binding result [1]: binds

B4: CD95 (Fas) C-terminal PL peptide AA13L (peptide)
peptide: Biotin-KDITSDSENSNFRNEIQSLV
notes: also called AAI3L
Kd [2]: 85 µM

B5: CDW125 (IL5R) C-terminal PL peptide AA28L (peptide)
peptide: Biotin-EVICYIEKPGVETLEDSVF
binding result [3]: binds

B6: CD34 C-terminal PL peptide AA7L (peptide)
peptide: Biotin-QATSRNGHSARQHVVADTEL
binding result [1]: binds

B7: Glycophorin C C-terminal PL peptide AA37L (peptide)
peptide: Biotin-QGDPALQDAGDSSRKEYFI
notes: also called GC
binding result [4]: binds
binding result [5]: no binding
binding result [1]: binds

B8: CD83 C-terminal PL peptide AA47L (peptide)
peptide: Biotin-VTSPNKHLGLVTPHKTELV
binding result [1]: binds

B9: Neurexin C-terminal PL peptide AA38L (peptide)
peptide: Biotin-SSAKSSNKNKKNKDKEYYV
binding result [5]: binds

B10: CD44 C-terminal PL peptide AA9L (peptide)
peptide: Biotin-QFMTADETRNLQNVDMKIGV
binding result [6]: binds
binding result [5]: binds

B11: FasL C-terminal PL peptide AA23L-M (peptide)
peptide: Biotin-SSKSKSSEESQTFFGLYKL
notes: also called FAS Ligand
binding result [7]: binds

B12: DNAM-1 C-terminal PL peptide AA22L (peptide)
peptide: Biotin-TREDIYVNYPTFSRRPKTRV
binding result [4]: binds
binding result [1]: binds

B13: KV1.3 C-terminal PL peptide AA33L (peptide)
peptide: Biotin-TTNNNPNSAVNIKKIFTDV
binding result [1]: binds

B14: CD138 C-terminal PL peptide AA18L (peptide)
peptide: Biotin-PKQANGGAYQKPTKQEEFYA
binding result [8]: binds

B15: VCAM1 C-terminal PL peptide AA17L (peptide)
peptide: Biotin-ARKANMKGSYSLVEAQKSKV
binding result [8]: binds
binding result [9]: binds
binding result [5]: binds
